B1: Vitronectin (protein)
chain: ATWLSLFSSEESNLGANNYDDYRMDWLVPATCEPIQSVFFFSGDKYYRVNLRTRRVDTVDPPYPRSIAQYWLGCPAPGHL

Key:
[1] = target: biotinylated SE36 (Plasmodium falciparum (Honduras-1)); experiment: SPR; Biacore T200, chip SA; biotinylated SE36 immobilized at 200 RU via streptavidin; purified VTN 1.25-20 μg/mL (~17.9-285.7 nM) flowed at 20 μL/min, 25 °C, PBS with 0.05% Tween 20; fitted to 1:1 binding and bivalent analyte models
SERA5 SE36 = target: T1, SERA5 SE36 (Plasmodium falciparum, UniProt Q9TY95); experiment: SPR
T1 chain: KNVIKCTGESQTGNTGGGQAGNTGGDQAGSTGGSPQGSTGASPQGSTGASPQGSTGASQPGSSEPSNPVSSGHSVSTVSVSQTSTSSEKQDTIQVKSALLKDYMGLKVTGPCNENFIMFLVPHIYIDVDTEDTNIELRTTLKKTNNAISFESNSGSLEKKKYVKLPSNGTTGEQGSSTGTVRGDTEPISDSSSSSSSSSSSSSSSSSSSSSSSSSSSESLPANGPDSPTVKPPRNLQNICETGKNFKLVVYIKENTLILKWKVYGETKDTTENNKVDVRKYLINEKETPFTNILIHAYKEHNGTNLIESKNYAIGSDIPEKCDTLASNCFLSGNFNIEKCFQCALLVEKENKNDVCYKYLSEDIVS

| Molecule | KD1 (bivalent analyte model, first interaction) [1] | ka1 (bivalent analyte model, first interaction) [1] | kd1 (bivalent analyte model, first interaction) [1] | Kd (SERA5 SE36) |
| --- | --- | --- | --- | --- |
| Vitronectin (VTN), human (natural protein) | 3.7 nM | 550000 M⁻¹ s⁻¹ | 0.002 s⁻¹ | – |
| B1 | – | – | – | 3.7 nM |

Source: publication PMC5864917 (2018)
